The supplement of paper PMC5998384

Key:
HeLa Kyoto [1] = test: solubility change mitosis vs G1/S (difference of NP-40 vs SDS log2 ratios) (log2 ratio difference); higher = more soluble in mitosis
HeLa Kyoto [2] = test: melting temperature (median over replicates), in situ; higher = more thermally stable
HeLa Kyoto [3] = test: thermal stability score vs G1/S (z-score of summed log2 fold changes over temperatures); higher = more thermally stable than in G1/S
HeLa Kyoto [4] = test: solubility in G1/S (NP-40 vs SDS abundance) (log2 ratio); higher = more soluble; details: cell cycle stage: G1/S
[5] = cell cycle stage: early G1 (4.5 h after nocodazole release)
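Wherever melting temperature (median over replicates), in situ is given: HeLa Kyoto cells synchronized by double thymidine or nocodazole block, proteins quantified by TMT10plex mass spectrometry, three independent biological replicates.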
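Wherever solubility change mitosis vs G1/S (difference of NP-40 vs SDS log2 ratios) is given: synchronized HeLa Kyoto cells (double thymidine block for G1/S, nocodazole release for mitosis), protein amounts in NP-40 versus SDS lysates quantified by mass spectrometry, three biological replicates.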
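Wherever solubility in G1/S (NP-40 vs SDS abundance) is given: HeLa Kyoto cells arrested at G1/S by double thymidine block, proteins quantified by TMT10plex mass spectrometry in mild NP-40 versus SDS extracts, three biological replicates.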
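Wherever thermal stability score vs G1/S (z-score of summed log2 fold changes over temperatures) is given: synchronized HeLa Kyoto cells, proteins quantified by TMT10plex mass spectrometry, three biological replicates, mitosis taken 0.5 h after nocodazole release, G1/S directly after double thymidine block.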

Substance	solubility change mitosis (log2) (HeLa Kyoto [1])	melting temperature (HeLa Kyoto [2]; cell cycle stage: G1/S) [°C]	melting temperature (HeLa Kyoto [2]; cell cycle stage: mitosis) [°C]	thermal stability score (HeLa Kyoto [3]; [5])	thermal stability score (HeLa Kyoto [3]; cell cycle stage: mitosis)	solubility in G1/S (log2) (HeLa Kyoto [4])
MASGGSGGVSVPALWSEVNRYGQNGDFTRALKTVNKILQINKDDVTALHCKVVCLIQNGSFKEALNVINTHTKVLANNSLSFEKAYCEYRLNRIENALKTIESANQQTDKLKELYGQVLYRLERYDECLAVYRDLVRNSQDDYDEERKTNLSAVVAAQSNWEKVVPENLGLQEGTHELCYNTACALIGQGQLNQAMKILQKAEDLCRRSLSEDTDGTEEDPQAELAIIHGQMAYILQLQGRTEEALQLYNQIIKLKPTDVGLLAVIANNIITINKDQNVFDSKKKVKLTNAEGVEFKLSKKQLQAIEFNKALLAMYTNQAEQCRKISASLQSQSPEHLLPVLIQAAQLCREKQHTKAIELLQEFSDQHPENAAEIKLTMAQLKISQGNISKACLILRSIEELKHKPGMVSALVTMYSHEEDIDSAIEVFTQAIQWYQNHQPKSPAHLSLIREAANFKLKYGRKKEAISDLQQLWKQNPKDIHTLAQLISAYSLVDPEKAKALSKHLPSSDSMSLKVDVEALENSAGATYIRKKGGKVTGDSQPKEQGQGDLKKKKKKKKGKLPKNYDPKVTPDPERWLPMRERSYYRGRKKGKKKDQIGKGTQGATAGASSELDASKTVSSPPTSPRPGSAATVSASTSNIIPPRHQKPAGAPATKKKQQQKKKKGGKGGW [SRP72]	0.328	50.5	49.7	-0.0233	0.35	-0.278
MANVGLQFQASAGDSDPQSRPLLLLGQLHHLHRVPWSHVRGKLQPRVTEELWQAALSTLNPNPTDSCPLYLNYATVAALPCRVSRHNSPSAAHFITRLVRTCLPPGAHRCIVMVCEQPEVFASACALARAFPLFTHRSGASRRLEKKTVTVEFFLVGQDNGPVEVSTLQCLANATDGVRLAARIVDTPCNEMNTDTFLEEINKVGKELGIIPTIIRDEELKTRGFGGIYGVGKAALHPPALAVLSHTPDGATQTIAWVGKGIVYDTGGLSIKGKTTMPGMKRDCGGAAAVLGAFRAAIKQGFKDNLHAVFCLAENSVGPNATRPDDIHLLYSGKTVEINNTDAEGRLVLADGVSYACKDLGADIILDMATLTGAQGIATGKYHAAVLTNSAEWEAACVKAGRKCGDLVHPLVYCPELHFSEFTSAVADMKNSVADRDNSPSSCAGLFIASHIGFDWPGVWVHLDIAAPVHAGERATGFGVALLLALFGRASEDPLLNLVSPLGCEVDVEEGDLGRDSKRRRLV [NPEPL1]	-0.0373	58.3	58.8	-4.2	-3.53	0.106
MAAAAAVEAAAPMGALWGLVHDFVVGQQEGPADQVAADVKSGNYTVLQVVEALGSSLENPEPRTRARAIQLLSQVLLHCHTLLLEKEVVHLILFYENRLKDHHLVIPSVLQGLKALSLCVALPPGLAVSVLKAIFQEVHVQSLPQVDRHTVYNIITNFMRTREEELKSLGADFTFGFIQVMDGEKDPRNLLVAFRIVHDLISRDYSLGPFVEELFEVTSCYFPIDFTPPPNDPHGIQREDLILSLRAVLASTPRFAEFLLPLLIEKVDSEVLSAKLDSLQTLNACCAVYGQKELKDFLPSLWASIRREVFQTASERVEAEGLAALHSLTACLSRSVLRADAEDLLDSFLSNILQDCRHHLCEPDMKLVWPSAKLLQAAAGASARACDSVTSNVLPLLLEQFHKHSQSSQRRTILEMLLGFLKLQQKWSYEDKDQRPLNGFKDQLCSLVFMALTDPSTQLQLVGIRTLTVLGAQPDLLSYEDLELAVGHLYRLSFLKEDSQSCRVAALEASGTLAALYPVAFSSHLVPKLAEELRVGESNLTNGDEPTQCSRHLCCLQALSAVSTHPSIVKETLPLLLQHLWQVNRGNMVAQSSDVIAVCQSLRQMAEKCQQDPESCWYFHQTAIPCLLALAVQASMPEKEPSVLRKVLLEDEVLAAMVSVIGTATTHLSPELAAQSVTHIVPLFLDGNVSFLPENSFPSRFQPFQDGSSGQRRLIALLMAFVCSLPRNVEIPQLNQLMRELLELSCCHSCPFSSTAAAKCFAGLLNKHPAGQQLDEFLQLAVDKVEAGLGSGPCRSQAFTLLLWVTKALVLRYHPLSSCLTARLMGLLSDPELGPAAADGFSLLMSDCTDVLTRAGHAEVRIMFRQRFFTDNVPALVQGFHAAPQDVKPNYLKGLSHVLNRLPKPVLLPELPTLLSLLLEALSCPDCVVQLSTLSCLQPLLLEAPQVMSLHVDTLVTKFLNLSSSPSMAVRIAALQCMHALTRLPTPVLLPYKPQVIRALAKPLDDKKRLVRKEAVSARGEWFLLGSPGS [MMS19]	-0.141	50.3	49.8	-0.678	0.247	-0.14
MASQPNSSAKKKEEKGKNIQVVVRCRPFNLAERKASAHSIVECDPVRKEVSVRTGGLADKSSRKTYTFDMVFGASTKQIDVYRSVVCPILDEVIMGYNCTIFAYGQTGTGKTFTMEGERSPNEEYTWEEDPLAGIIPRTLHQIFEKLTDNGTEFSVKVSLLEIYNEELFDLLNPSSDVSERLQMFDDPRNKRGVIIKGLEEITVHNKDEVYQILEKGAAKRTTAATLMNAYSSRSHSVFSVTIHMKETTIDGEELVKIGKLNLVDLAGSENIGRSGAVDKRAREAGNINQSLLTLGRVITALVERTPHVPYRESKLTRILQDSLGGRTRTSIIATISPASLNLEETLSTLEYAHRAKNILNKPEVNQKLTKKALIKEYTEEIERLKRDLAAAREKNGVYISEENFRVMSGKLTVQEEQIVELIEKIGAVEEELNRVTELFMDNKNELDQCKSDLQNKTQELETTQKHLQETKLQLVKEEYITSALESTEEKLHDAASKLLNTVEETTKDVSGLHSKLDRKKAVDQHNAEAQDIFGKNLNSLFNNMEELIKDGSSKQKAMLEVHKTLFGNLLSSSVSALDTITTVALGSLTSIPENVSTHVSQIFNMILKEQSLAAESKTVLQELINVLKTDLLSSLEMILSPTVVSILKINSQLKHIFKTSLTVADKIEDQKKELDGFLSILCNNLHELQENTICSLVESQKQCGNLTEDLKTIKQTHSQELCKLMNLWTERFCALEEKCENIQKPLSSVQENIQQKSKDIVNKMTFHSQKFCADSDGFSQELRNFNQEGTKLVEESVKHSDKLNGNLEKISQETEQRCESLNTRTVYFSEQWVSSLNEREQELHNLLEVVSQCCEASSSDITEKSDGRKAAHEKQHNIFLDQMTIDEDKLIAQNLELNETIKIGLTKLNCFLEQDLKLDIPTGTTPQRKSYLYPSTLVRTEPREHLLDQLKRKQPELLMMLNCSENNKEETIPDVDVEEAVLGQYTEEPLSQEPSVDAGVDCSSIGGVPFFQHKKSHGKDKENRGINTLERSKVEETTEHLVTKSRLPLRAQINL [KIF11]	-0.143	48.2	49	6	5.17	-0.0398
MADGGSERADGRIVKMEVDYSATVDQRLPECAKLAKEGRLQEVIETLLSLEKQTRTASDMVSTSRILVAVVKMCYEAKEWDLLNENIMLLSKRRSQLKQAVAKMVQQCCTYVEEITDLPIKLRLIDTLRMVTEGKIYVEIERARLTKTLATIKEQNGDVKEAASILQELQVETYGSMEKKERVEFILEQMRLCLAVKDYIRTQIISKKINTKFFQEENTEKLKLKYYNLMIQLDQHEGSYLSICKHYRAIYDTPCIQAESEKWQQALKSVVLYVILAPFDNEQSDLVHRISGDKKLEEIPKYKDLLKLFTTMELMRWSTLVEDYGMELRKGSLESPATDVFGSTEEGEKRWKDLKNRVVEHNIRIMAKYYTRITMKRMAQLLDLSVDESEAFLSNLVVNKTIFAKVDRLAGIINFQRPKDPNNLLNDWSQKLNSLMSLVNKTTHLIAKEEMIHNLQ [PSMD12]	-0.104	52.3	51.6	2.61	2.56	0.0925
MPLHQLGDKPLTFPSPNSAMENGLDHTPPSRRASPGTPLSPGSLRSAAHSPLDTSKQPLCQLWAEKHGARGTHEVRYVSAGQSVACGWWAFAPPCLQVLNTPKGILFFLCAAAFLQGMTVNGFINTVITSLERRYDLHSYQSGLIASSYDIAACLCLTFVSYFGGSGHKPRWLGWGVLLMGTGSLVFALPHFTAGRYEVELDAGVRTCPANPGAVCADSTSGLSRYQLVFMLGQFLHGVGATPLYTLGVTYLDENVKSSCSPVYIAIFYTAAILGPAAGYLIGGALLNIYTEMGRRTELTTESPLWVGAWWVGFLGSGAAAFFTAVPILGYPRQLPGSQRYAVMRAAEMHQLKDSSRGEASNPDFGKTIRDLPLSIWLLLKNPTFILLCLAGATEATLITGMSTFSPKFLESQFSLSASEAATLFGYLVVPAGGGGTFLGGFFVNKLRLRGSAVIKFCLFCTVVSLLGILVFSLHCPSVPMAGVTASYGGSLLPEGHLNLTAPCNAACSCQPEHYSPVCGSDGLMYFSLCHAGCPAATETNVDGQKVYRDCSCIPQNLSSGFGHATAGKCTSTCQRKPLLLVFIFVVIFFTFLSSIPALTATLRCVRDPQRSFALGIQWIVVRILGGIPGPIAFGWVIDKACLLWQDQCGQQGSCLVYQNSAMSRYILIMGLLYKVLGVLFFAIACFLYKPLSESSDGLETCLPSQSSAPDSATDSQLQSSV [SLCO4A1]	-0.143	55.2	56.9	-0.978	-0.221	0.576
MSYPGYPPTGYPPFPGYPPAGQESSFPPSGQYPYPSGFPPMGGGAYPQVPSSGYPGAGGYPAPGGYPAPGGYPGAPQPGGAPSYPGVPPGQGFGVPPGGAGFSGYPQPPSQSYGGGPAQVPLPGGFPGGQMPSQYPGGQPTYPSQINTDSFSSYPVFSPVSLDYSSEPATVTQVTQGTIRPAANFDAIRDAEILRKAMKGFGTDEQAIVDVVANRSNDQRQKIKAAFKTSYGKDLIKDLKSELSGNMEELILALFMPPTYYDAWSLRKAMQGAGTQERVLIEILCTRTNQEIREIVRCYQSEFGRDLEKDIRSDTSGHFERLLVSMCQGNRDENQSINHQMAQEDAQRLYQAGEGRLGTDESCFNMILATRSFPQLRATMEAYSRMANRDLLSSVSREFSGYVESGLKTILQCALNRPAFFAERLYYAMKGAGTDDSTLVRIVVTRSEIDLVQIKQMFAQMYQKTLGTMIAGDTSGDYRRLLLAIVGQ [ANXA7]	0.0486	50.7	51.3	2.36	2	0.437
DIP2A	-0.0755	51.3		0.00154	0.398	-0.104
MATNFLAHEKIWFDKFKYDDAERRFYEQMNGPVAGASRQENGASVILRDIARARENIQKSLAGSSGPGASSGTSGDHGELVVRIASLEVENQSLRGVVQELQQAISKLEARLNVLEKSSPGHRATAPQTQHVSPMRQVEPPAKKPATPAEDDEDDDIDLFGSDNEEEDKEAAQLREERLRQYAEKKAKKPALVAKSSILLDVKPWDDETDMAQLEACVRSIQLDGLVWGASKLVPVGYGIRKLQIQCVVEDDKVGTDLLEEEITKFEEHVQSVDIAAFNKI [EEF1D]	0.255	50.6	50.6	1.79	2.76	0.332
MEGCVSNLMVCNLAYSGKLEELKESILADKSLATRTDQDSRTALHWACSAGHTEIVEFLLQLGVPVNDKDDAGWSPLHIAASAGRDEIVKALLGKGAQVNAVNQNGCTPLHYAASKNRHEIAVMLLEGGANPDAKDHYEATAMHRAAAKGNLKMIHILLYYKASTNIQDTEGNTPLHLACDEERVEEAKLLVSQGASIYIENKEEKTPLQVAKGGLGLILKRMVEG [PSMD10]	0.136	48.5	49.8	0.248	1.31	0.145
GCC2	-0.00143	48.9	49.4	0.337	1.48	0.461
